# From patent publication US20150175710A1 (DEVELOPMENT CENTER FOR BIOTECHNOLOGY, published 2015)
# Assays:
# [1] = molecular target: T1, human ENO1 protein (wild type) (human, UniProt P06733 1-434); assay: ELISA, ENO1 coated, EN10 mAb 2-fold serial dilution, four parameter logistic fit
# T1 construct: Coated on ELISA plates; also called alpha-Enolase; enolase-1; not shown: source of the protein in Exampl
# [2] = molecular target: T1, human ENO1 protein (wild type); assay: ELISA, 400 ng human ENO1 coated, antibody serial dilution, four parameter logistic fit
# [3] = molecular target: T2, human ENO1 mutant D300 to alanine (human, UniProt P06733 1-434); assay: ELISA, mutant ENO1 coated, EN10 mAb 2-fold serial dilution, four parameter logistic fit
# T2 construct: Expressed in E. coli; also called A300; not shown: His tag (Ni-agarose purified)
# T2 sequence (P06733 other isoform, or with tags, fused parts or gaps mutant limits assumed): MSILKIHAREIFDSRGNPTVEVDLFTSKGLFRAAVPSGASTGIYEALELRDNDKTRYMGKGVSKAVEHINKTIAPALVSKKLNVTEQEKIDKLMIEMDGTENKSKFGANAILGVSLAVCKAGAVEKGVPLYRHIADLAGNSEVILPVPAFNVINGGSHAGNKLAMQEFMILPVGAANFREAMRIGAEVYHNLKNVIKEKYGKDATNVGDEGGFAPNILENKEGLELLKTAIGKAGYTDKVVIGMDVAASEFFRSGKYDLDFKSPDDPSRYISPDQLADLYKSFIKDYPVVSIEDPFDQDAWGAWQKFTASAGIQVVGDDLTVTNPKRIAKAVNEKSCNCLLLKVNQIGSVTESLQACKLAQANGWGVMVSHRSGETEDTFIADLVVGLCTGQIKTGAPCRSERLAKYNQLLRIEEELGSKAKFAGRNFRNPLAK
# [4] = molecular target: T3, human ENO1 mutant G302 to alanine (human, UniProt P06733 1-434); assay: as above
# T3 construct: Expressed in E. coli; also called A302; not shown: His tag (Ni-agarose purified)
# T3 sequence (P06733 other isoform, or with tags, fused parts or gaps mutant limits assumed): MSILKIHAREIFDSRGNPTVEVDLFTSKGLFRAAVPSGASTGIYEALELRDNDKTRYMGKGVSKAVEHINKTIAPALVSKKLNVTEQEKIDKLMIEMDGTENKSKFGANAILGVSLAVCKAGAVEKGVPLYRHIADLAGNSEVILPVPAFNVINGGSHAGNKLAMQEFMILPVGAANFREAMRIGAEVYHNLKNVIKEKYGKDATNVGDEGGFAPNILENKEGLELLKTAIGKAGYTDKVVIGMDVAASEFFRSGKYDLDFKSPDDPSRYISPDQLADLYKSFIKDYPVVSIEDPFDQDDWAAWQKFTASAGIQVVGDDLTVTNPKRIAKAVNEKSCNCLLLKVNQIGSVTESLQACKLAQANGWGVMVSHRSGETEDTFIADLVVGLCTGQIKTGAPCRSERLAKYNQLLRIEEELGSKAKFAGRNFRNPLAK
# [5] = molecular target: T4, human ENO1 mutant Q305 to alanine (human, UniProt P06733 1-434); assay: as above
# T4 construct: Expressed in E. coli; also called A305; not shown: His tag (Ni-agarose purified)
# T4 sequence (P06733 other isoform, or with tags, fused parts or gaps mutant limits assumed): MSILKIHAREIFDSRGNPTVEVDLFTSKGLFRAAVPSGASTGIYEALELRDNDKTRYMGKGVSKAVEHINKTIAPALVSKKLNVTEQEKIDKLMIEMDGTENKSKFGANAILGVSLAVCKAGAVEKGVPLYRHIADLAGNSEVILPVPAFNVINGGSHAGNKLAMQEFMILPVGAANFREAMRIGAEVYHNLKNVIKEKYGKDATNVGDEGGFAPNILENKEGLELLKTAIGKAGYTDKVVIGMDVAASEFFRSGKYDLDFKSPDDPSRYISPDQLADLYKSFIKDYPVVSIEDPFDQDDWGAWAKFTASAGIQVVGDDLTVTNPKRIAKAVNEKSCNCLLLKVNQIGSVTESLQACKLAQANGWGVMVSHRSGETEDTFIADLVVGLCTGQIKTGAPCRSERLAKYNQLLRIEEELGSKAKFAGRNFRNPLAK
# [6] = molecular target: T5, human ENO1 mutant K306 to alanine (human, UniProt P06733 1-434); assay: as above
# T5 construct: Expressed in E. coli; also called A306; not shown: His tag (Ni-agarose purified)
# T5 sequence (P06733 other isoform, or with tags, fused parts or gaps mutant limits assumed): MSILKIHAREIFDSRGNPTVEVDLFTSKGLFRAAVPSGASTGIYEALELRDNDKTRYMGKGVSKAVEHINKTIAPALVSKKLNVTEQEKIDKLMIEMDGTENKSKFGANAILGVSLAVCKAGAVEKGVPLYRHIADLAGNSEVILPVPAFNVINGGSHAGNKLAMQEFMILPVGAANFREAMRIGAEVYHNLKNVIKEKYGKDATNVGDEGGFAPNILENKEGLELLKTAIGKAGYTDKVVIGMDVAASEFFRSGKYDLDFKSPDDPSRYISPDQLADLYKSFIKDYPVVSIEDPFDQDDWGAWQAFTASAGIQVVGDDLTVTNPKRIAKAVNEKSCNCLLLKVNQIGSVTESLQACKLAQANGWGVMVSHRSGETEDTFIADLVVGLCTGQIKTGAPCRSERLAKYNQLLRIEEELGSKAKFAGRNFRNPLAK
# [7] = molecular target: T6, human ENO1 mutant A309 to glycine (human, UniProt P06733 1-434); assay: as above
# T6 construct: Expressed in E. coli; not shown: His tag (Ni-agarose purified)
# T6 sequence (P06733 other isoform, or with tags, fused parts or gaps mutant limits assumed): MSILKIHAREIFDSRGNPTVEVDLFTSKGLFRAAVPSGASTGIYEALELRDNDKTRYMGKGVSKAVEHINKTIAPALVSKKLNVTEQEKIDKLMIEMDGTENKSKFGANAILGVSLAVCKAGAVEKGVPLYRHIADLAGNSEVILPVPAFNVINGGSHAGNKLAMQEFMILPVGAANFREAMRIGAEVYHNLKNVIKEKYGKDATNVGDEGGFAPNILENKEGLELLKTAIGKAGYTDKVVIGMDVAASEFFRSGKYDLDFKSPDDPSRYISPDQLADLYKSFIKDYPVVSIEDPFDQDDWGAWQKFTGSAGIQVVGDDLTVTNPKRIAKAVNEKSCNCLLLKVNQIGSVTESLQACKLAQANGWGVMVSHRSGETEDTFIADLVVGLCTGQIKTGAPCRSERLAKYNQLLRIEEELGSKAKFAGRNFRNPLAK
# [8] = molecular target: T7, human ENO1 mutant K326 to alanine (human, UniProt P06733 1-434); assay: as above
# T7 construct: Expressed in E. coli; also called A326; not shown: His tag (Ni-agarose purified)
# T7 sequence (P06733 other isoform, or with tags, fused parts or gaps mutant limits assumed): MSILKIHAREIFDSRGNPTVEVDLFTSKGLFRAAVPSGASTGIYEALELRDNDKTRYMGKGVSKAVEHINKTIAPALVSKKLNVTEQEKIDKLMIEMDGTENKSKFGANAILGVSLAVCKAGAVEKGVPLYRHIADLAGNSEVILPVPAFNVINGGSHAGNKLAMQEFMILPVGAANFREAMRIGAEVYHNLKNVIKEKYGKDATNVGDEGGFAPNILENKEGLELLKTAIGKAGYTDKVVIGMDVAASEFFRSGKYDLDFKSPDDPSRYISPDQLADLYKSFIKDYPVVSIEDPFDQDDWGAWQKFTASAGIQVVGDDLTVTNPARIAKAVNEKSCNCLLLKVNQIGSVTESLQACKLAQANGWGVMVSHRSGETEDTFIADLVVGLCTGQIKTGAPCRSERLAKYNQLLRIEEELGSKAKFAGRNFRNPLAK
# [9] = molecular target: T8, human ENO1 mutant N333 to alanine (human, UniProt P06733 1-434); assay: as above
# T8 construct: Expressed in E. coli; also called A333; not shown: His tag (Ni-agarose purified)
# T8 sequence (P06733 other isoform, or with tags, fused parts or gaps mutant limits assumed): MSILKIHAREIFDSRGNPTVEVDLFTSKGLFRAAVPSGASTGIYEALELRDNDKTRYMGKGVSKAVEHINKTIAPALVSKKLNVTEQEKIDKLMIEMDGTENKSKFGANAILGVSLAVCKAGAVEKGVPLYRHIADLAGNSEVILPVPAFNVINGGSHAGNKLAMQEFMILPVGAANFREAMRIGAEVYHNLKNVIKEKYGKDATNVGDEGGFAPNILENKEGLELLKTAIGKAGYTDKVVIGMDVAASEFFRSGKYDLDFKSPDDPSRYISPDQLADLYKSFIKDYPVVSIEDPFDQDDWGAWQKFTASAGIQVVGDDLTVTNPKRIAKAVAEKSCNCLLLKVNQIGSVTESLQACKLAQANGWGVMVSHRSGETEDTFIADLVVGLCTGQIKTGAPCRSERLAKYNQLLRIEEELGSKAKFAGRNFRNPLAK
# [10] = molecular target: T9, human ENO1 mutant E334 to alanine (human, UniProt P06733 1-434); assay: as above
# T9 construct: Expressed in E. coli; also called A334; not shown: His tag (Ni-agarose purified)
# T9 sequence (P06733 other isoform, or with tags, fused parts or gaps mutant limits assumed): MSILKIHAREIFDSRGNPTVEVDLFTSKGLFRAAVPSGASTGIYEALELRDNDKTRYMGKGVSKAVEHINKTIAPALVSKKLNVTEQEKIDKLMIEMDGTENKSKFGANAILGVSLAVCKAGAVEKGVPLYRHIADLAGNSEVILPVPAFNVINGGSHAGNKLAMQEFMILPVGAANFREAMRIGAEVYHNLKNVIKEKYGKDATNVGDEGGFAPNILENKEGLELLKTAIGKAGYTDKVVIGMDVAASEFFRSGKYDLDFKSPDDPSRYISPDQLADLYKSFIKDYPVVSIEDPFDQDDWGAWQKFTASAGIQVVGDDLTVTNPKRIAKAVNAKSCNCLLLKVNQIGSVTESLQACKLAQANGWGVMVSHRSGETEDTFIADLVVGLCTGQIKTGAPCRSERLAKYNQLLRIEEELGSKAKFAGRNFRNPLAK
# [11] = molecular target: T10, human ENO1 mutant K335 to alanine (human, UniProt P06733 1-434); assay: as above
# T10 construct: Expressed in E. coli; also called A335; not shown: His tag (Ni-agarose purified)
# T10 sequence (P06733 other isoform, or with tags, fused parts or gaps mutant limits assumed): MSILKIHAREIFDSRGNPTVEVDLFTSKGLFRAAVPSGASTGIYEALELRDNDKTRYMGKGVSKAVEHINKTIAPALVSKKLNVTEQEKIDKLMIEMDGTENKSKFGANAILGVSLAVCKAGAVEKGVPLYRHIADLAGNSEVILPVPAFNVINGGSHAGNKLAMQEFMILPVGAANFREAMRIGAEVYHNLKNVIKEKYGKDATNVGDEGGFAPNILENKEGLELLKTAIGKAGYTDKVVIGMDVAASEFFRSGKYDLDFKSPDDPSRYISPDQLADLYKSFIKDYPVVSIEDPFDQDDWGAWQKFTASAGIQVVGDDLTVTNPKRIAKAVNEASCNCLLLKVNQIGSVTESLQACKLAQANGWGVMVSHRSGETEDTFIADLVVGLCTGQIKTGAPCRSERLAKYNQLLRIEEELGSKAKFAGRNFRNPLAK
# T1 sequence (P06733 whole entry): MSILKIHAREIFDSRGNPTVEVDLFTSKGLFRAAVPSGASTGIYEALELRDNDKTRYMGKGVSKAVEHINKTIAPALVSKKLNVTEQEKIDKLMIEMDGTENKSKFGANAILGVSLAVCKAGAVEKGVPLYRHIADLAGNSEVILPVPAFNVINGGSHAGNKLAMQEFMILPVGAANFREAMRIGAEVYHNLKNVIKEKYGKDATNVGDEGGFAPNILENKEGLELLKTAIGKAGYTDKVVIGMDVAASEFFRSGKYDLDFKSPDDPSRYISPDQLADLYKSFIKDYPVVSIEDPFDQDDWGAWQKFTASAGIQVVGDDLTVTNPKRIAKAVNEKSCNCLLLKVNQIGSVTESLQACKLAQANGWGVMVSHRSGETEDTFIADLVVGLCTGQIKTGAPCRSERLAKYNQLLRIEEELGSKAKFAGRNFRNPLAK
binder,measurement,setting,value
"anti-human ENO1 antibody EN10 mAb (antibody, V domains shown) VH: EVQLQQSGPELVKPGASVKMSCKASGYTFTSCVMNWVKQKPGQGLEWIGYINPYNDGTKYNEKFKGKATLTSDKSSSTAYMELSSLTSEDSAVYYCAREGFYYGNFDNWGQGTTLTVSS VL: DIQMTQSPASLSASVGETVTITCRASENIYSYLTWYQQKQGKSPQLLVYNAKTLPEGVPSRFSGSGSGTQFSLKINSLQPEDFGSYYCQHHYGTPYTFGGGTKLEITR",Kd,[1],0.443 nM
same,Kd,[2],0.203 nM
same,Kd,[3],63.3 nM
same,Kd,[4],0.345 nM
same,Kd,[5],0.331 nM
same,Kd,[6],0.465 nM
same,Kd,[7],5.63 nM
same,Kd,[8],0.787 nM
same,Kd,[9],0.413 nM
same,Kd,[10],107 nM
same,Kd,[11],9.57 nM
